Paper doi:10.1101/2023.02.13.526773

Experiments:
[1] = target: FLAG-tagged GFP11-CHAMP-1 fusion (N-terminal GFP11); assay: split reporter
[2] = target: mEpoR-TM2 (isotope-labelled recombinant mEpoR TM domain fragment) (mouse); assay: SDS-PAGE

mEpoR-GFP1-10 fusion protein (domain or fragment)
fold MFI over cells expressing either fusion alone [1]: > 4 fold

mEpoR-TM2 (isotope-labelled recombinant mEpoR TM domain fragment) (domain or fragment)
stoichiometry N [2]: 2
